Results on six molecules are retold here after US7732183B2, “Method for refolding enzymes” (Elan Pharmaceuticals, Inc., priority 2001, dated 2010).

Several values for one entry are separate records, joined by “and”; a condition that tells them apart may be missing. Identical values can stand only once.

Common to all, as to assay type: biochemical
For series [1], the system named is substrate SEISY↓EVEFRWKK [SEQ ID NO:9] or GLTNIKTEEISEISY↓EVEFRWKK [SEQ ID NO:10]. The series can be described thus: BACE activity assay: HPLC with fluorescence detection of peptide substrate cleavage. The conditions noted are these: for Activity %: relative to recombinant BACE expressed in CHO cells (=100), E. coli enzymes refolded as in Example 4 and purified. Here is the method: (§1) Peptide substrates SEISY↓EVEFRWKK [SEQ ID NO: 9] and GLTNIKTEEISEISY↓EVEFRWKK [SEQ ID NO: 10] were synthesized by solid-phase technology (arrows indicating cleavage site). The assay mixture contained in a volume of 200 μl, 0.1 M Sodium acetate, pH 5.0, 0.5-20 nM BACE and 25 μM substrate SEISY↓EVEFRWKK [SEQ ID NO:9] or GLTNIKTEEISEISY↓EVEFRWKK [SEQ ID NO:10]. The reaction mixture was incubated for 2 hours at 37° C.; reactions were stopped with 100 μl of 4% TFA in H2O. A 50 μl portion was injected into an Agilent 1100 Series HPLC equipped with an Alltech Rocket™ column (7 mm i.d.×53 mm length, C18, 3 μm) pre-equilibrated with 88% reagent A (0.1% TFA in water), 12% reagent B (0.1% TFA in acetonitrile). The flow rate over this column was 3 ml per minute. The products (including uncleaved substrate) were eluted from the column with the following linear gradients:
(§2) The Agilent 1100 Series HPLC is equipped with a fluorescence detector that allows detection of the substrate disappearance and EVEFRWKK [SEQ ID NO:29] product formation. Activity was expressed as Fluorescence peak area generated by the liberation of a fluorescent (Tryptophan fluorescence) product upon cleavage of substrate. Fluorescence detection is monitored at 348 nM upon excitation at 280 nm.

For series [2], the target named is T1, substrate SEISY↓EVEFRWKK [SEQ ID NO:9] or GLTNIKTEEISEISY↓EVEFRWKK [SEQ ID NO:10] (Homo sapiens, UniProt P56817).
T1 construct: made in house; control enzyme from CHO cells
The description is as above. The conditions noted are these: relative to CHO BACE, Example 5 optimized refolding method. Here is the method:
as §1, §2

For series [3], the system named is GLTNIKTEEISEISY-↓-EVEFRWKK [SEQ ID NO: 10]. Nature of the series: Kinetic comparison of CHO and E. coli BACE (Vmax, kcat, Km). The conditions noted are these: substrate SEQ ID NO: 10, 1 to 300 μM; pH 5.5, 50 mM NaCl, 37° C., 1 h, enzyme 1 nM.
Series [4] concerns SEISY-↓-EVEFRWKK [SEQ ID NO: 9]. The series is described as above. Conditions: substrate SEQ ID NO: 9, 1 to 300 μM; pH 5.5, 50 mM NaCl, 37° C., 1 h, enzyme 1 nM.
The target of series [5] is T2, EIDL-↓-MVLDWHDR [SEQ ID NO: 13] (Homo sapiens, UniProt P56817).
T2 construct: made in house; host or cells: CHO cells, purified from conditioned media
The series is described as above. Conditions: substrate SEQ ID NO: 13, 1 to 300 μM; pH 5.5, 50 mM NaCl, 37° C., 1 h, enzyme 1 nM.

B1: pET11a-BACE + HIV Pr: V40 to S432 BACE fragment, SEQ ID NO:31, obtained by HIV-1 protease treatment of pET11a-BACE (protein, listed as Homo sapiens)
chain: VEMVDNLRGKSGQGYYVEMTVGSPPQTLNILVDTGSSNFAVGAAPHPFLHRYYQRQLSSTYRDLRKGVYVPYTQGKWEGELGTDLVSIPHGPNVTVRANIAAITESDKFFINGSNWEGILGLAYAEIARPDDSLEPFFDSLVKQTHVPNLFSLQLCGAGFPLNQSEVLASVGGSMIIGGIDHSLYTGSLWYTPIRREWYYEVIIVRVEINGQDLKMDCKEYNYDKSIVDSGTTNLRLPKKVFEAAVKSIKAASSTEKFPDGFWLGEQLVCWQAGTTPWNIFPVISLYLMGEVTNQSFRITILPQQYLRPVEDVATSQDDCYKFAISQSSTGTVMGAVIMEGFYVVFDRARKRIGFAVSACHVHDEFRTAAVEGPFVTLDMEDCGYNIPQTDES
modifications: BACE V40- S432 fragment
Consider B1, for which the “increase in enzyme activity after HIV-1 protease treatment versus untreated enzyme” value in series [1] (HIV-1 protease cleavage at F39-V40, then purification) is “about 5 fold”. Moreover, the Activity % in series [1] is 248%; in series [1] (listed as V^40 . . . S^432), 248% and 222%.

B2: pQE80L-BACE + HIV Pr: V40 to S432 BACE fragment, SEQ ID NO:31, obtained by HIV-1 protease treatment of pQE80L-BACE (protein, listed as Homo sapiens)
chain: VEMVDNLRGKSGQGYYVEMTVGSPPQTLNILVDTGSSNFAVGAAPHPFLHRYYQRQLSSTYRDLRKGVYVPYTQGKWEGELGTDLVSIPHGPNVTVRANIAAITESDKFFINGSNWEGILGLAYAEIARPDDSLEPFFDSLVKQTHVPNLFSLQLCGAGFPLNQSEVLASVGGSMIIGGIDHSLYTGSLWYTPIRREWYYEVIIVRVEINGQDLKMDCKEYNYDKSIVDSGTTNLRLPKKVFEAAVKSIKAASSTEKFPDGFWLGEQLVCWQAGTTPWNIFPVISLYLMGEVTNQSFRITILPQQYLRPVEDVATSQDDCYKFAISQSSTGTVMGAVIMEGFYVVFDRARKRIGFAVSACHVHDEFRTAAVEGPFVTLDMEDCGYNIPQTDES
modifications: BACE V40- S432 fragment
B2: in series [1], the Activity % worked out at 222%.

B3: PcDNA3.1Asp2LΔTM(His)6 + HIV Pr: CHO-expressed BACE cleaved with HIV-1 protease, SEQ ID NO:32 (protein, listed as Homo sapiens)
chain: VEMVDNLRGKSGQGYYVEMTVGSPPQTLNILVDTGSSNFAVGAAPHPFLHRYYQRQLSSTYRDLRKGVYVPYTQGKWEGELGTDLVSIPHGPNVTVRANIAAITESDKFFINGSNWEGILGLAYAEIARPDDSLEPFFDSLVKQTHVPNLFSLQLCGAGFPLNQSEVLASVGGSMIIGGIDHSLYTGSLWYTPIRREWYYEVIIVRVEINGQDLKMDCKEYNYDKSIVDSGTTNLRLPKKVFEAAVKSIKAASSTEKFPDGFWLGEQLVCWQAGTTPWNIFPVISLYLMGEVTNQSFRITILPQQYLRPVEDVATSQDDCYKFAISQSSTGTVMGAVIMEGFYVVFDRARKRIGFAVSACHVHDEFRTAAVEGPFVTLDMEDCGYNIPQTDESHHHHHH
modifications: His6 tag; HIV Protease treated BACE Asp2-2L-TM-His6
As for B3, the “more enzymatic activity than untreated BACE” value in series [1] (BACE expressed in CHO cells, HIV-1 protease treated and purified) is 10-20%. Besides, the Activity % in series [1] came out at 120%.

B4: pQE70-BACE: (M)R36 to S432 BACE-RS(His)6 lacking prosequence, SEQ ID NO:3, expressed in E. coli and refolded (protein, listed as Homo sapiens)
chain: MRGSFVEMVDNLRGKSGQGYYVEMTVGSPPQTLNILVDTGSSNFAVGAAPHPFLHRYYQRQLSSTYRDLRKGVYVPYTQGKWEGELGTDLVSIPHGPNVTVRANIAAITESDKFFINGSNWEGILGLAYAEIARPDDSLEPFFDSLVKQTHVPNLFSLQLCGAGFPLNQSEVLASVGGSMIIGGIDHSLYTGSLWYTPIRREWYYEVIIVRVEINGQDLKMDCKEYNYDKSIVDSGTTNLRLPKKVFEAAVKSIKAASSTEKFPDGFWLGEQLVCWQAGTTPWNIFPVISLYLMGEVTNQSFRITILPQQYLRPVEDVATSQDDCYKFAISQSSTGTVMGAVIMEGFYVVFDRARKRIGFAVSACHVHDEFRTAAVEGPFVTLDMEDCGYNIPQTDESRSHHHHHH
modifications: His6 tag
Regarding B4, the values for the Activity % in series [2] (first elution from affinity column) and in series [2] (second elution from affinity column) were 171% and 125%, respectively. Further, the Km amounted to 5.4 µM in series [3] and 55.5 µM in series [4]. Also, the Vmax in series [3] was determined as 0.400 µmol/min/mg; in series [4], 0.345 µmol/min/mg. Further, the kcat is 0.317 s⁻¹ in series [3] and 0.273 s⁻¹ in series [4].

B5: PcDNA3.1Asp2LΔTM(His)6: Recombinant human BACE lacking transmembrane domain, His6 tag, expressed in CHO cells (control), SEQ ID NO:23 (protein, listed as Homo sapiens)
chain: MAQALPWLLLWMGAGVLPAHGTQHGIRLPLRSGLGGAPLGLRLPRETDEEPEEPGRRGSFVEMVDNLRGKSGQGYYVEMTVGSPPQTLNILVDTGSSNFAVGAAPHPFLHRYYQRQLSSTYRDLRKGVYVPYTQGKWEGELGTDLVSIPHGPNVTVRANIAAITESDKFFINGSNWEGILGLAYAEIARPDDSLEPFFDSLVKQTHVPNLFSLQLCGAGFPLNQSEVLASVGGSMIIGGIDHSLYTGSLWYTPIRREWYYEVIIVRVEINGQDLKMDCKEYNYDKSIVDSGTTNLRLPKKVFEAAVKSIKAASSTEKFPDGFWLGEQLVCWQAGTTPWNIFPVISLYLMGEVTNQSFRITILPQQYLRPVEDVATSQDDCYKFAISQSSTGTVMGAVIMEGFYVVFDRARKRIGFAVSACHVHDEFRTAAVEGPFVTLDMEDCGYNIPQTDESHHHHHH
modifications: His6 tag; Human soluble BACE with 6-His tag
Consider B5, for which the Activity % in series [1] is 100%. In series [5], the Michaelis constant (Km) is 12 µM, the Vmax was 0.0196 µmol/min/mg and the kcat was 0.0155 s⁻¹. Also, in series [3], the Km came out at 4.9 µM, the Vmax is 0.435 µmol/min/mg and the kcat was 0.345 s⁻¹. In series [4], the Km was 52 µM, the Vmax is 0.294 µmol/min/mg and the kcat is 0.233 s⁻¹.

B6: pET11a-BACE: T7 tag-GSM-BACE (A-8 to S432), SEQ ID NO:5, expressed in E. coli and refolded (protein, listed as Homo sapiens)
chain: MASMTGGQQMGRGSMAGVLPAHGTQHGIRLPLRSGLGGAPLGLRLPRETDEEPEEPGRRGSFVEMVDNLRGKSGQGYYVEMTVGSPPQTLNILVDTGSSNFAVGAAPHPFLHRYYQRQLSSTYRDLRKGVYVPYTQGKWEGELGTDLVSIPHGPNVTVRANIAAITESDKFFINGSNWEGILGLAYAEIARPDDSLEPFFDSLVKQTHVPNLFSLQLCGAGFPLNQSEVLASVGGSMIIGGIDHSLYTGSLWYTPIRREWYYEVIIVRVEINGQDLKMDCKEYNYDKSIVDSGTTNLRLPKKVFEAAVKSIKAASSTEKFPDGFWLGEQLVCWQAGTTPWNIFPVISLYLMGEVTNQSFRITILPQQYLRPVEDVATSQDDCYKFAISQSSTGTVMGAVIMEGFYVVFDRARKRIGFAVSACHVHDEFRTAAVEGPFVTLDMEDCGYNIPQTDES
modifications: T7 tag
B6: the Activity % in series [1] is given as 47%; in series [1] (listed as pET11a BACE), “about 47%”; in series [1] (listed as recombinant BACE) it was 28%.

The Km is the concentration of substrate that gives half-maximal velocity. A word on the Vmax: it is the rate approached at saturating substrate. One may read the kcat as the number of substrate molecules converted per active site and unit of time at saturation.
